# Literature values, collected in patent publication US6194458A, “Benzamide potassium channel inhibitors” (Merck & Co., Inc., priority 1999, dated 2001).
# Target: T1, Kv 1.3 channels (Homo sapiens, UniProt P22001)
# T1 construct: expressed in transfected cells; host or cells: CHO cells
# Details: blocker of Kv 1.3 channels; CHO cells transfected with Kv 1.3; stated in the method description
# T1 sequence (P22001 whole entry): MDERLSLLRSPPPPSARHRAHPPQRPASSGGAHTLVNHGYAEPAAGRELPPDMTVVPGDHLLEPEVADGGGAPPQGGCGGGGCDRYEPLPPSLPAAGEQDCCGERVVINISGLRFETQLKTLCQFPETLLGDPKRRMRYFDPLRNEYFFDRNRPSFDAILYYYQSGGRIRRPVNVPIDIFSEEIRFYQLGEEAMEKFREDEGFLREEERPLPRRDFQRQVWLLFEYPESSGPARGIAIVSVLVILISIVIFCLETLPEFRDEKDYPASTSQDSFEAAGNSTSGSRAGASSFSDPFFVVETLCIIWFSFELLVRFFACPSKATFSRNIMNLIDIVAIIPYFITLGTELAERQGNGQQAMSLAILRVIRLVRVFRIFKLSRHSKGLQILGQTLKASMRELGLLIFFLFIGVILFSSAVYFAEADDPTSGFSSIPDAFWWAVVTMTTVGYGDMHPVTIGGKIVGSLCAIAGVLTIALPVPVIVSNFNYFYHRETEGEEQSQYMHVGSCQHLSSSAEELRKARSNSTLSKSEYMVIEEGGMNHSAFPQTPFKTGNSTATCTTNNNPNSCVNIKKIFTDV
substance,measurement,value
"margatoxin (TIINVKCTSPKQCLPPCKAQFGQSAGAKCMNGKCKCYPH; UniProt P40755 1-39, looked up)",IC50,0.1 nM
